In article PMC10257715, “Allosteric activation of cell wall synthesis during bacterial growth” (Nature Communications, 2023):

Target: the molecule itself
Experiment: cryo-EM structure; purified RodA-PBP2 complex in 0.02% DDM, 350 mM NaCl, 20 mM HEPES pH 7.5; Titan Krios 300 kV; low-resolution maps

B1: Escherichia coli PBP2, wild type, of ^EcRodA-PBP2^WT (cryo-EM sample) (enzyme, UniProt P0AD65 1-633, looked up)
chain: MKLQNSFRDYTAESALFVRRALVAFLGILLLTGVLIANLYNLQIVRFTDYQTRSNENRIKLVPIAPSRGIIYDRNGIPLALNRTIYQIEMMPEKVDNVQQTLDALRSVVDLTDDDIAAFRKERARSHRFTSIPVKTNLTEVQVARFAVNQYRFPGVEVKGYKRRYYPYGSALTHVIGYVSKINDKDVERLNNDGKLANYAATHDIGKLGIERYYEDVLHGQTGYEEVEVNNRGRVIRQLKEVPPQAGHDIYLTLDLKLQQYIETLLAGSRAAVVVTDPRTGGVLALVSTPSYDPNLFVDGISSKDYSALLNDPNTPLVNRATQGVYPPASTVKPYVAVSALSAGVITRNTTLFDPGWWQLPGSEKRYRDWKKWGHGRLNVTRSLEESADTFFYQVAYDMGIDRLSEWMGKFGYGHYTGIDLAEERSGNMPTREWKQKRFKKPWYQGDTIPVGIGQGYWTATPIQMSKALMILINDGIVKVPHLLMSTAEDGKQVPWVQPHEPPVGDIHSGYWELAKDGMYGVANRPNGTAHKYFASAPYKIAAKSGTAQVFGLKANETYNAHKIAERLRDHKLMTAFAPYNNPQVAVAMILENGGAGPAVGTLMRQILDHIMLGDNNTDLPAENPAVAAAEDH
notes: Forms dimers of the RodA-PBP2 complex when overexpressed; also called ^EcPBP2; ^EcWT; source: overexpressed, purified
- stoichiometry N: 2
